The target in assay [1] is galectin-3 (gal-3), recombinant (UniProt P17931).
Assay [2] has as its target apoptosis-linked gene 2-interacting protein X (ALIX), His-tagged recombinant (UniProt Q8WUM4). Nature of the assay: BLI; Octet RED96; biotinylated ALIX (1 ug/ml), TSG101 (0.5 ug/ml) or gal-3 (1 ug/ml) on streptavidin biosensors; two-fold dilutions of S (280-70 uM) and P domain (144-36 uM); 20 mM HEPES, 150 mM NaCl, 0.005% Tween 20, 2 mg/ml BSA, pH 7.8; 2:1 model. (In general: BLI is a label-free optical method that tracks binding on a fibre tip over time.)

Assay [3] has as its target TSG101, His-tagged recombinant (UniProt Q99816). The assay is described as above.

For orientation: Kd means the concentration at which binding is half-saturated.

Sequence of apoptosis-linked gene 2-interacting protein X (ALIX), His-tagged recombinant (Q8WUM4 whole entry): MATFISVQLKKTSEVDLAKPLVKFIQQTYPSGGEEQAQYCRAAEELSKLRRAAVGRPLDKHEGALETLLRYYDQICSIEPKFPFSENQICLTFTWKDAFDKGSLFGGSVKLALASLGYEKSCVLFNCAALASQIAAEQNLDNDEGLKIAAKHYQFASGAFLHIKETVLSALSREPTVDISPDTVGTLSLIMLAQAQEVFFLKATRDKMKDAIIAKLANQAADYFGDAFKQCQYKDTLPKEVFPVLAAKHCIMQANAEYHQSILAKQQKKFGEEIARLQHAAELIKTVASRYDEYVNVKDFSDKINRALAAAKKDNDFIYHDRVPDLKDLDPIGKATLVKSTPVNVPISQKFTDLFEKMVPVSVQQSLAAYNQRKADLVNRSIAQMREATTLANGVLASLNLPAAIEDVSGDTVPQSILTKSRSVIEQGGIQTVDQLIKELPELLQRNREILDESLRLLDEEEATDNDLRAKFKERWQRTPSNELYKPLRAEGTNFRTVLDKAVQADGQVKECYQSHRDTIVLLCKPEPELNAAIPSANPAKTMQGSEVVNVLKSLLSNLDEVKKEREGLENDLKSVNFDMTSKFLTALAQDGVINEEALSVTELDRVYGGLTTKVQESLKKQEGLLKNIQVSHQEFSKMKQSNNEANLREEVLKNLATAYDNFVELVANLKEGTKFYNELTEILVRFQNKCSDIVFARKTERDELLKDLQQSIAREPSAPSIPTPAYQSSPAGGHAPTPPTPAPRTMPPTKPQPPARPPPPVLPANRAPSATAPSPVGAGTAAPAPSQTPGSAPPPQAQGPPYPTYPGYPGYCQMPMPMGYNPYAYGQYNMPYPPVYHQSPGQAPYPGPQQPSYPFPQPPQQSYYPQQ
Sequence of TSG101, His-tagged recombinant (Q99816 whole entry): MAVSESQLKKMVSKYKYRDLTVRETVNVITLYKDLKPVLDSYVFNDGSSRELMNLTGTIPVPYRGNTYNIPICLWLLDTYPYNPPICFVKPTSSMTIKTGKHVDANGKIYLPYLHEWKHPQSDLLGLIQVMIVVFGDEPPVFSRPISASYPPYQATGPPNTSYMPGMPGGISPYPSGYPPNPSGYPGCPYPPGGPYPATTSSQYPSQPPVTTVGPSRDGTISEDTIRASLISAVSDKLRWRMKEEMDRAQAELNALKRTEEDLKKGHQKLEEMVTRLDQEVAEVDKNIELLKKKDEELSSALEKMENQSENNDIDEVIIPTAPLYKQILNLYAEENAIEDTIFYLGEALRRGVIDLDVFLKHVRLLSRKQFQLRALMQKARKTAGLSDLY
Sequence of galectin-3 (gal-3), recombinant (P17931 whole entry): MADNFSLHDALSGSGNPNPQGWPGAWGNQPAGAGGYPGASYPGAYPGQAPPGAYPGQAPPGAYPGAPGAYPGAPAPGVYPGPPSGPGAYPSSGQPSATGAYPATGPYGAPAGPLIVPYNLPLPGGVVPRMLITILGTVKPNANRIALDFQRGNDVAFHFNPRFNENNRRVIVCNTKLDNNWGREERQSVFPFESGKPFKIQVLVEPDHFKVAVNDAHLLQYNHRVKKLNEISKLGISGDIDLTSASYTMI

For the substance “GII.4 Sydney/2012 virus-like particles (complex)”, the GII.4 virus (stool isolate) replication in J2 HIEs at 24 h in the presence of anti-gal-3 antibody in assay [1] turned out to be 98 % reduction. Turning to “GII.4 capsid Shell (S) domain (domain or fragment)”, the Kd in assay [2] worked out at 9.92 µM; in assay [3], 21.5 µM.

Source of the values: paper PMC9974061.
